This passage reports percent inhibition of binding by EGTA results from publication PMC3531509.

In the experiment the target is rabbit muscle actin (rabbit) (UniProt P68135). Nature of the experiment: ELISA. Background: An ELISA detects its analyte on a solid surface through an enzyme-linked reagent.

With “Calmodulin-like calcium binding protein EhCaBP3 of Entamoeba histolytica (recombinant, wild type) (natural protein)”, the percent inhibition of binding by EGTA is 75%.
